Starred links: 1 amine or outer side, 2 acyl side, 3 side chain; linkers in the order of their positions; H or OH if unused. Positions of bridges follow the written chain, without caps; N, C: chain ends. Non-standard residues stand in square brackets, D forms with d. No end group written: not given here. TBMB = c1c(C[*:1])cc(C[*:3])cc1C[*:2]; Dap(Me) = CNC[C@H](N)C(=O)O
Experiments:
integrin αvβ3 [1] = molecular target: integrin αvβ3 (Homo sapiens, UniProt P05106+P06756); test: Integrin αvβ3 competition binding assay (competition fluorescence polarisation, FITC-LC-GRGDSP ligand); conditions: relative to thioether linked Reference Example 1
Procedure: The peptide ligands of the examples and the reference examples were tested in the above mentioned assay.
The following reference peptide ligands having a TBMB or TATA scaffold with three thioether linkages to cysteine residues of the specified peptide sequences were prepared and evaluated for affinity to integrin αvβ3 as described in detail in our earlier application GB1800598.3 filed 15 Jan. 2018.

integrin αvβ3 [2] = test: competition fluorescence polarisation, 5 nM FITC-LC-GRGDSP tracer; n1
integrin αvβ3 [3] = test: competition fluorescence polarisation, 5 nM FITC-LC-GRGDSP tracer; n2

Row | Molecule | binding affinity to integrin αvβ3 (in words) (integrin αvβ3 [1]) | Ki (integrin αvβ3 [2]) | Ki (integrin αvβ3 [3])
1 | [Ac]A[Dap(Me)]ILRPN[Dap(Me)]DLDGR[Dap(Me)]A [BCY00009181] | larger drop in the measured affinity |  | 
2 | Ac-A[Dap(Me)]ILRPN[Dap(Me)]DLDGR[Dap(Me)]A (linker 2-8-14 via TBMB) [BCY00009181] |  | > 18.6 µM | > 18.6 µM

Source: patent publication US20210147485A1, “PEPTIDE LIGANDS FOR BINDING TO INTEGRIN” (BicycleTx Limited, priority 2018, published 2021)
